Values of other authors, collected in publication PMC3925188.
Several values for one entry are separate records, joined by “and”; a condition that tells them apart may be missing. Equal entries are not always repeated.

Molecular target: Histone H3K4me3 H3K4me3 (Homo sapiens) (UniProt P68431)

KMT2A PHD3, sequence (Q03164 1566-1627): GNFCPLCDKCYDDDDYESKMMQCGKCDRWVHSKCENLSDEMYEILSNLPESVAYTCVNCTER

Kd: 30 µM and 19 µM and 4 µM
Substance: KMT2A PHD3 (from UniProt Q03164)
